Data on 2 molecules can be found in paper PMC8815974, “Mechanistic Insight Into Cadmium- and Zinc-Induced Inactivation of the Candida albicans Pif1 Helicase”.

This data set concerns the target T1, CaPif1 (Candida albicans, UniProt Q59RQ0 1-906).
T1 sequence: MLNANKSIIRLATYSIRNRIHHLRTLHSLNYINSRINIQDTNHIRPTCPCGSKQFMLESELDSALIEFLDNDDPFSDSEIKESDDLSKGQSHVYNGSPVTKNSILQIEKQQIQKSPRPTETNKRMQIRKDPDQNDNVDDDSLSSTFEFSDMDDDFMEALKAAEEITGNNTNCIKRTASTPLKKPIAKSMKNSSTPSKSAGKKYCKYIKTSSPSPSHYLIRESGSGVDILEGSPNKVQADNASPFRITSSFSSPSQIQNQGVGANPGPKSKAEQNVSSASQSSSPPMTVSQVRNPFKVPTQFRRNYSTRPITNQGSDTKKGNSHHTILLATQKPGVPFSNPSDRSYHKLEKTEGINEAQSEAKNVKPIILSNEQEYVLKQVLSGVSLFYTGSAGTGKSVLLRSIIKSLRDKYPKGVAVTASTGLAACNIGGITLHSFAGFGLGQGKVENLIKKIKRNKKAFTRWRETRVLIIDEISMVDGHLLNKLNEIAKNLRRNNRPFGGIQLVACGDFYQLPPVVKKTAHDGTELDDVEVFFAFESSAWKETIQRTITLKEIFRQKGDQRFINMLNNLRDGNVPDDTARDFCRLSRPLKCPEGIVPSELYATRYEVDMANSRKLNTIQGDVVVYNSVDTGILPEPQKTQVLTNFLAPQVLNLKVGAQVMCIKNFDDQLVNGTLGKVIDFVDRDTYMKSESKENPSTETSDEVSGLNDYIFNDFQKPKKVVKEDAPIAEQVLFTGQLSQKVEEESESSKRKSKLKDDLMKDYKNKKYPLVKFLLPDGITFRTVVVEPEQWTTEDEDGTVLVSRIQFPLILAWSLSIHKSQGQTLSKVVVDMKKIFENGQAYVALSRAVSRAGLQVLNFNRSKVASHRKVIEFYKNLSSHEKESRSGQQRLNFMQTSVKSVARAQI
Kind of data set: EMSA; 1.5 mM Mg2+, no ATP; CaPif1 0-3000 nM; 25 mM Tris-HCl pH 7.5, 50 mM NaCl, 1.5 mM MgCl2, 1 mM DTT, 25 C; EMSA 10 nM DNA, 5 min, 6% native PAGE; FP 5 nM DNA, 10 min. The following applies: protein: recombinant, tags: none (N-terminal His-SUMO tag removed).

Regarding CCATGCAGCTGTCAGTCCATTGTCATGCTAGGCCTACTGC (ssDNA) [S40], the binding result (label: 3'-FAM, single strand, 40 nt) is “binds”.

B1: OhS22D21 (dsDNA)
DNA 1: CTGTAGGAATGTGAAATAAAAACGATGTTTTATTTACATTGTA
DNA 2: TACAATGTAAATAAAACATCG
Consider B1, for which the binding result (label: 3'-FAM on strand 1, 5' overhang 22 nt, 21 bp duplex) is “binds”.
